According to patent publication US6956104B2, “Protein Rim2” (JCR Pharmaceuticals Co., Ltd., priority 1999, dated 2005):

What was measured:
[1] = target: T1, constitutively active Rab3A (Q81L) (Bos taurus, UniProt P11023, Q81L); assay: Yeast two-hybrid assay with Rab3A; assay type: binding, bovine; settings: transactivation of liquid β-galactosidase activity
T1 construct: the full-length cDNA's for wild type mouse Rab3A and constitutively active bovine Rab3A (Q81L) were cloned into the yeast bait vector pBTM116; expressed in transfected cells
T1 sequence (P11023 1-220 Q81L): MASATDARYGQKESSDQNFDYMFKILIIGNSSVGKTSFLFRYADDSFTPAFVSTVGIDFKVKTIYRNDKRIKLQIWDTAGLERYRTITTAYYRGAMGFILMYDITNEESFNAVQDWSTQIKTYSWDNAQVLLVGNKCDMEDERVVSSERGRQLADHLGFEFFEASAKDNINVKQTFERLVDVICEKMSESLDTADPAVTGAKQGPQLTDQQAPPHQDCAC
Text: According to the method described in “Identification of Interacting molecules by YTH Method”, the full-length cDNA's for wild type mouse Rab3A and constitutively active bovine Rab3A (Q81L) were cloned into the yeast bait vector pBTM116.
The nucleotide sequence of zinc finger domains of bovine rabphilin3 (amino acid residues 1-283), rat Rim1 (amino acid residues 1-204) and mouse Rim2 (amino acid residues 1-345 were cloned into the prey vector pVP16. Liquid culture assay of […] activities was performed according to the manufacturer's instructions (Clontech). The activity values were obtained from 3 independent clones for each transformant and normalized by cell numbers determined as OD600.

[2] = target: T2, cAMP-GEFII (Mus musculus, UniProt Q9EQZ6); assay: GST pull-down, interaction of Rim with cAMP-GEFII; assay type: binding; settings: lysates of COS-1 or MIN6 cells, or mouse brain homogenate; immunoblotting
T2 construct: A full-length cAMP-GEFII cDNA was subcloned into plasmid pFLAG-CMV-2 (Sigma); expressed in transfected cells; host or cells: COS-1 cells
T2 sequence (Q9EQZ6 1-1011): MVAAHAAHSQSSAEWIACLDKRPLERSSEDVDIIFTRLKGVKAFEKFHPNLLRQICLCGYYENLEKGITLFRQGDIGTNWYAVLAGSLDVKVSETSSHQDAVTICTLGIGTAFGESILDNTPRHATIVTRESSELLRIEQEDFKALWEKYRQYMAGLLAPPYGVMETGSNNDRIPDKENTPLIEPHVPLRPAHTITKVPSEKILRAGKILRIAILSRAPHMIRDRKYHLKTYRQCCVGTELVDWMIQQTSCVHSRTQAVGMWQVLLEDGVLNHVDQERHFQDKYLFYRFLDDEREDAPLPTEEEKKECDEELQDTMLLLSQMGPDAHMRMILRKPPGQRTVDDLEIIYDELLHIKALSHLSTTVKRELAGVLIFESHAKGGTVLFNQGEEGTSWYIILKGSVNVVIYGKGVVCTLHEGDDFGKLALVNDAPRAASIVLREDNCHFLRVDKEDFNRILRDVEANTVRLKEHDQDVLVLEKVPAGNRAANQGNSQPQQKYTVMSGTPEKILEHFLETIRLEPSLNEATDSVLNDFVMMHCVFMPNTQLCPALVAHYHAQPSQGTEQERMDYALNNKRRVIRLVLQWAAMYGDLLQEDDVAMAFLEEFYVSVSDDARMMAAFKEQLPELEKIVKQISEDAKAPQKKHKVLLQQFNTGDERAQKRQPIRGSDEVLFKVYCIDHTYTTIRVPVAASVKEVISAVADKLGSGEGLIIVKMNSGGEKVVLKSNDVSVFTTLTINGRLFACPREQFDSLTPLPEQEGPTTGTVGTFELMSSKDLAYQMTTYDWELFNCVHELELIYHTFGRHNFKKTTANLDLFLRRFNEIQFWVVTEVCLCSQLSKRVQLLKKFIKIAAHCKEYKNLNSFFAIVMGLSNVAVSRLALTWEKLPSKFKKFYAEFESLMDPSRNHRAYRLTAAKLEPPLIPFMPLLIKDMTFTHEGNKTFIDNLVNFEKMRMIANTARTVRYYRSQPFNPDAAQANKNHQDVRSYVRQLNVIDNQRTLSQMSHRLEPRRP
Method: Rim2 (amino acid residues 538-863) was expressed as a GST fusion protein and purified according to the method described in “Preparation and Test of GST fusion Protein”. A full-length cAMP-GEFII cDNA was subcloned into plasmid pFLAG-CMV-2 (Sigma). The resultant construct was transfected into COS-1 cells, using LipofectAMINE (Life Technologies). The lysate of the COS-1 cells was incubated with GST-Rim2 immobilized on glutathione beads for 2 hrs at 4° C. The complex thus obtained was washed with distilled water, separated by SDS-PAGE, and immunoblotted with an anti-FLAG M2 antibody (Sigma).
The lysate of MIN6 cells was incubated with GST-Rim2 and interaction between cAMP-GEFII and Rim2 was evaluated according to the method described in “Study on Interaction between Rim2 and cAMP-GEFII: I”, using a IgG antibody raised against the C-terminus (amino acid residues 1001-1011, […] (SEQ ID NO:5) of mouse cAMP-GEFII.
According to the method described in “Preparation and Test of GST fusion Protein”, Rim1 partial sequence (530-806) was expressed as a GST fusion protein and then purified. The brain homogenate from three mice was incubated with GST-Rim1 immobilized on glutathione beads overnight at 4° C. cAMP-GEFII was detected as described in “Study on Interaction between Rim2 and cAMP-GEFII: II”.

[3] = test system: Rab3A; assay: In vitro binding of Rab3A to immobilized GST-Rim; settings: immobilized on glutathione beads; anti-Rab3A immunoblotting
Method: Lipid-modified Rab3A was purified from the membrane fraction of Sf9 cells expressing Rab3A. Rat Rim1 (amino acid residues 1-204) and mouse Rim2 (amino acid residues 1-345) were expressed as GST fusion proteins and purified. The GTP γS- or GDP βS-bound form of Rab3A was incubated for 90 min at 4° C. with GST-Rim1, or GST-Rim2 (30 pmol for each) immobilized on glutathione beads in reaction buffer. Rab3A was detected by immunoblotting with anti-Rab3A antibody.

B1: Rim1: Rab3-interacting molecule, putative effector of the small G protein Rab3; rat, used as GST fusion (protein)
chain: MSSAVGPRGPRPPTVPPPMQELPDLSHLTEEERNIIMAVMDRQKEEEEKEEAMLKCVVRDMAKPAACKTPRNAESQPHQPPLNIFRCVCVPRKPSSEEGGPERDWRLHQQFESYKEQVRKIGEEARRYQGEHKDDAPTCGICHKTKFADGCGHLCSYCRTKFCARCGGRVSLRSNNEDKVVMWVCNLCRKQQEILTKSGAWFFG
modifications: left off: large carriers
notes: rat, used as GST fusion
interaction with active Rab3A (Q81L) [1]: interacts
interaction with cAMP-GEFII protein [2]: bound
binding to GTPγS- or GDP-bound form of Rab3A [3]: binds to the GTP-activated form
